Data on two substances can be found in patent publication US20050272633A1.

This assay addresses endogenous NIK of mouse embryonic fibroblast cells (mouse) (UniProt Q9WUL6). Description: cell-based or functional assay.

Chain of endogenous NIK of mouse embryonic fibroblast cells (mouse) (Q9WUL6 whole entry): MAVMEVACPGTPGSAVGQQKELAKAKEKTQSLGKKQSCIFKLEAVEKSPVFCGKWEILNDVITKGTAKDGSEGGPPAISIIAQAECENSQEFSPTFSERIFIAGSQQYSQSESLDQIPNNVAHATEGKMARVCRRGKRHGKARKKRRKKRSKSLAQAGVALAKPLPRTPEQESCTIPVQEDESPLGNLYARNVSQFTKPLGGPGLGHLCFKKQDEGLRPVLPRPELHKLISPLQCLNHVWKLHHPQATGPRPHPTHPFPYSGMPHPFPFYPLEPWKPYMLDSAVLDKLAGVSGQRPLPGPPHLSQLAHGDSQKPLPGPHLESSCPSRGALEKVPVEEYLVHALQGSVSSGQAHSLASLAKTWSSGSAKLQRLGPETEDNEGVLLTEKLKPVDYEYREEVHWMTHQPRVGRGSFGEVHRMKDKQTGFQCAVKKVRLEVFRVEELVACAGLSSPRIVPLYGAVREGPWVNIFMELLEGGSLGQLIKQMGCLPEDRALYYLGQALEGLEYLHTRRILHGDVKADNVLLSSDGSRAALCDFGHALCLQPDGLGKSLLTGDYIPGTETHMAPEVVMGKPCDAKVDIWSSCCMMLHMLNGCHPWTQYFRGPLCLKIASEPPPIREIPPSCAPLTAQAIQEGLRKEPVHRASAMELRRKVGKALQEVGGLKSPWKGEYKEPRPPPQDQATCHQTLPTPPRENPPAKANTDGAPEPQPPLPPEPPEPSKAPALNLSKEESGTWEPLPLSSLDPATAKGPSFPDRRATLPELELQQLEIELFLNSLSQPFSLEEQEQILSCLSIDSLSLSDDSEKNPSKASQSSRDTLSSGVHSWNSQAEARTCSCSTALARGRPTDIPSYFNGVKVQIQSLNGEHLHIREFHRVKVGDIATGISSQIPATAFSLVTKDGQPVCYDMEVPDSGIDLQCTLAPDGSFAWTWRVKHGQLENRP

For the substance “GST fusion protein with the intracellular domain of cγc (pGSTICcγc) (from UniProt P31785 284-369)”, the NF-κB activation by LTβ, luciferase reporter assay, mouse embryonic fibroblast cell line came to 2.5 fold.

On to “GST-41MDD fusion protein (from UniProt P31785 329-369)”, for which the decrease in NF-κB activation by LTβ, luciferase reporter assay, mouse embryonic fibroblast cell line worked out at 50%.
